Legend:
rat RXFP1 = biological target: T1, rat RXFP1 (Rattus norvegicus, UniProt Q6R6I6); assay: Relaxin-stimulated cAMP assay in HEK293 stably expressing rat RXFP1; details: three-point selectivity screen, n = 2
T1 sequence (Q6R6I6 1-758): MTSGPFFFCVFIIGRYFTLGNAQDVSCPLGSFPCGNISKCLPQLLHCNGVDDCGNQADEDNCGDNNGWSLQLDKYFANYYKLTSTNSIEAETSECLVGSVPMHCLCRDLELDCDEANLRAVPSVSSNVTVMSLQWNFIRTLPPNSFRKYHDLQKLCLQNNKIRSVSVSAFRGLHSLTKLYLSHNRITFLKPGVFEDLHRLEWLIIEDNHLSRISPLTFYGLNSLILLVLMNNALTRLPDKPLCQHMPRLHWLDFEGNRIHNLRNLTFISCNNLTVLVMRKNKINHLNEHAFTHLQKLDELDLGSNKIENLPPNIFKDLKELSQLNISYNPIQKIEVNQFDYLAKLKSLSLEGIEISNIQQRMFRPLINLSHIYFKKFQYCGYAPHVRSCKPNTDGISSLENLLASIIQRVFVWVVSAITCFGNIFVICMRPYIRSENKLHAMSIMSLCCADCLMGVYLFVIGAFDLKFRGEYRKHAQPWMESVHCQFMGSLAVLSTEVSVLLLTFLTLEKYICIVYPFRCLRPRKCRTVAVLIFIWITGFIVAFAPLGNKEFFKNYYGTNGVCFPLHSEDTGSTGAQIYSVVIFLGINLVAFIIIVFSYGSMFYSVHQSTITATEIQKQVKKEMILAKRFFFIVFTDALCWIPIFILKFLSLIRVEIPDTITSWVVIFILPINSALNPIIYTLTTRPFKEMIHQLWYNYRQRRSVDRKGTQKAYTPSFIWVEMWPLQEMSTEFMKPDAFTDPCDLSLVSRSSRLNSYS
Procedure: (§1) RXFP activity assays were developed in HEK293 with stable expression of RXFP2 or RXFP1.
(§2) The same approach was used to generate stable HEK293 lines expressing human and rat RXFP1 and RXFP2 cDNA. The cAMP assay was conducted using the Eurofin Hithunter kit per manufacturer’s instructions in a 384-well format. All dose curve fitting and EC50 and IC50 determinations were performed in Prism (v9.3.0) using the non-linear fit, variable slope (four parameter) function.

rat RXFP2 = rat RXFP2 (Rattus norvegicus, UniProt F7EMH8); assay: INSL3-stimulated cAMP assay in HEK293 stably expressing rat RXFP2; details: INSL3 EC80-stimulated cAMP, stable expression, N = 2;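 further: cAMP measured with an HitHunter kit in 384-well plates, 11-point dose–response curves up to 1 µM antibody, four-parameter variable-slope fit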
Procedure: as §1, §2

human RXFP2 = human RXFP2 (Homo sapiens, UniProt Q8WXD0); assay: INSL3-stimulated cAMP assay in HEK293 stably expressing human RXFP2
[1] = Pharmacokinetic study of RXFP2 mAbs in rat; type: in vivo, Wistar Han rats
Procedure: For the pharmacokinetic study of RXFP2 mAbs in rat, 1G1, 2D4, 4B1, 4G6, 1F2, and 3F3 were prepared in phosphate buffered saline (0.100 mg/mL) with low endotoxin (≤ 0.76 EU/mL). Adult male Wistar Han rats (n = 3/mAb) were administered 1 mg/kg subcutaneously (10 mL/kg). Blood samples (100 µL) were collected in EDTA containing tubes at 0.25, 3, 6 24, 48, 96, 168 (day 7), 336 (day 14), 504 (day 21), and 672 (day 28) hours post dose, immediately centrifuged (6100 rpm), and 50 µL plasma stored at − 80 °C until assay. Rats maintained health throughout the study and were anesthetized (isoflurane to effect) and euthanized on day 28.
Frozen rat plasma samples were thawed and analyzed using a qualified analytical method based on sample dilution, followed by Electrochemiluminescence immunoassay analysis. The lower limit of quantification (LLQ) was 0.1 µg/mL using a 10 µL aliquot of 51-fold diluted rat plasma with a higher limit of quantification (HLQ) of 10 µg/mL. RXFP2 mAbs were captured with LDLa protein and detected with sulfo-tag labeled mouse anti-rat IgG2b. The computer systems that were used to acquire and quantify data included Gyrolab Workstation Version 8.1.5 and Watson LIMS version 7.6.1. Rat pharmacokinetic parameters were calculated by non-compartmental analysis (NCA) analysis using WinNonlin Phoenix 64 (version 8.3). Values are reported in mean ± standard deviation.

[2] = biological target: T2, human LDLa peptide (UnitProt Q8WXD0 43-80) (Homo sapiens, UniProt Q8WXD0); assay: ELISA binding to linker-less human LDLa peptide
T2 construct: human LDLa peptide (Q8WXD0 43-80)
Procedure: The human/rat RXFP2 cross reactive antibodies belong to two epitope bins and were further evaluated for binding to the linker-less human LDLa peptide (UnitProt Q8WXD0 43-80) by ELISA. […] The different domain requirements for binding are consistent with results from the binning experiment showing 4F6 and 4G6 are in a separate bin from 4B1.
Rat LDLa-linker_ratFc, human LDLa-linker_ratFc, or ratFc, or human LDLa peptide (Q8WXD0 43-80) was diluted to 1 µg/mL in 1X PBS and immobilized in separate 96-well ELISA plates (Nunc Maxisorp), 50 µL/well. The plates were then incubated overnight at 4 °C. The following day the plates were washed three times with ELISA wash buffer (PBS + 0.05% Tween-20) and then blocked with ELISA blocking buffer (PBS + 0.05% Tween-20 + 1% BSA), 200 µL/well, and incubated 1 h at room temperature on a shaker. Plates were again washed three times followed by the addition of the primary antibodies. Hybridoma supernatant was added neat, 50 µL/well; mouse serum was added 1:100 and then serially diluted 1:2 for 8 points, 50 µL/well. Purified antibodies were added 5 µg/mL in the first well and serially diluted down the plate 1:2 for 8 points, 50 µL/well. Primary antibody was incubated for 1 h at room temperature on a shaker. […] Stopping solution (2N Sulfuric acid) was added to the plates 50 µL/well, and then read on a plate reader (SpectraMax Molecular Devices) at 450 nm.

[3] = male Wistar Han rats, 1 mg/kg s.c., n = 3, mean ± SD

Sequence of human RXFP2 (Q8WXD0 whole entry): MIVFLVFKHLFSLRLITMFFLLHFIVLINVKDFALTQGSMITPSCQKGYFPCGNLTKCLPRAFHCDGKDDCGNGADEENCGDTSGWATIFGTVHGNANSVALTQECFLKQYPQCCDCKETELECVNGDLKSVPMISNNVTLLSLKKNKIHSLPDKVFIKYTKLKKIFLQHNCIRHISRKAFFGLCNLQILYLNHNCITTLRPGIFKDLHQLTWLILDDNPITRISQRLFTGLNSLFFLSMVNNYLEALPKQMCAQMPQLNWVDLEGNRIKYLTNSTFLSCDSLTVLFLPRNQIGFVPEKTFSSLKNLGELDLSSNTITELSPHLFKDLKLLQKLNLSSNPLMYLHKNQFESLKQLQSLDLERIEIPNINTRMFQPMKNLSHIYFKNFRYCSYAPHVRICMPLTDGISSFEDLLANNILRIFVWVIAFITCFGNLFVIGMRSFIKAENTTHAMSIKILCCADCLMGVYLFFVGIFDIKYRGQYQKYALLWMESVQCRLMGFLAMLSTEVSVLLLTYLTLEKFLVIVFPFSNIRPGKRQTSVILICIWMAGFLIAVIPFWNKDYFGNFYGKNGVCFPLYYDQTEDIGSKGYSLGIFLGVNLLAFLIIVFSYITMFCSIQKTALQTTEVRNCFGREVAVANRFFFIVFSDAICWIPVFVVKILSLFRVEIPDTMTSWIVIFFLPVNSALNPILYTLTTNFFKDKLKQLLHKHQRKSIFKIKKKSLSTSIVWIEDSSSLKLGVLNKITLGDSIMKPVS
Sequence of rat RXFP2 (F7EMH8 20-737): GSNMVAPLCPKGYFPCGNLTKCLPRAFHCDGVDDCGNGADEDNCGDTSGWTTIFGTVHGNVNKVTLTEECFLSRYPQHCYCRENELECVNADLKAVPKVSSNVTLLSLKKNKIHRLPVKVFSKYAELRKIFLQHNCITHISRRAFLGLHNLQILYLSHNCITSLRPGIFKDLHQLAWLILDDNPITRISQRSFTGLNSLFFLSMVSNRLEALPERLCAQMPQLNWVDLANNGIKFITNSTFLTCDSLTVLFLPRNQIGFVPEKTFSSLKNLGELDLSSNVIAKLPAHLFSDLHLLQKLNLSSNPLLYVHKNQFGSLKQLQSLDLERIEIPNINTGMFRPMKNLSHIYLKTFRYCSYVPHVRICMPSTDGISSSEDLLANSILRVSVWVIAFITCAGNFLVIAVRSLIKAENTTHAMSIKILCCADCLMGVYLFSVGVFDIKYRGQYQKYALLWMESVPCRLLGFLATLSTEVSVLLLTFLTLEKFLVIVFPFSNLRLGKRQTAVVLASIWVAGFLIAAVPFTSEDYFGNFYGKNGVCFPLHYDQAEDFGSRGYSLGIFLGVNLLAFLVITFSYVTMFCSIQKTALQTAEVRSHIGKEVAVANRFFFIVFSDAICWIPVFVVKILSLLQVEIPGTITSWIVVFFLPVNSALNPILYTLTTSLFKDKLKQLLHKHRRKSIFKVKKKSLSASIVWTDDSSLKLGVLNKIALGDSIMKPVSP
T2 sequence (Q8WXD0 43-80 limits assumed): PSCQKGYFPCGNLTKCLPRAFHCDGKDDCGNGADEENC

blockade of rRXFP1 (relaxin-stimulated cAMP) (rat RXFP1): did not block
HEK293-rat RXFP2 cAMP % Max Response (rat RXFP2): 82.5%
IC50 (rat RXFP2; read-out: HEK293-rat RXFP2 cAMP IC50): 0.0141 µM
blockade of hRXFP2 (human RXFP2; INSL3-stimulated cAMP, HEK293-hRXFP2): strong blockade
HEK293-human RXFP2 cAMP % Max Response (human RXFP2; INSL3 EC80-stimulated cAMP, stable expression, N = 2): 84.5%
IC50 (human RXFP2; read-out: HEK293-human RXFP2 cAMP IC50, INSL3 EC80-stimulated cAMP, stable expression, N = 2): 0.0156 µM
binding to linker-less human LDLa peptide [2]: bind
B1: 4G6: Human/rat cross-reactive RXFP2 monoclonal antibody, rat IgG2b backbone; binds the LDLa domain (antibody, V domains shown)
VH: EVQLQQSGPELVKPGASVKLSCKASGYTFTSYVMHWVKQKPEQGLEWIGYKNPSNDGIKYNEKFKGKATLTSDKSSNIAYMELFSLTSEDSAVYYCARSDFGSVWAMDYWGQGTSVTVSS
VL: SIVMTQTPKFLLVSAGDRVTITCKASQSVNDDIVWYQQKPGQSPKLLIYYASNRYTGVPDRFTGSGYGTDFTFTISTVQAGDLAVYFCQQDYSSPFTFGSGTKLEIK
half-life, extrapolated values ([1]; Wistar Han rats, 1 mg/kg sc., over 28 days): ≥ 11 days
estimated dose to achieve tenfold higher IC50 HEK-rRXFP2 cAMP activity for approximately 28 days in rat ([1]; from trough concentration, dose-linearity assumed): approximately 30 mg/kg
AUClast [1, 3]: 1350 ± 125 µg·h/mL
Cmax [1, 3]: 4.15 ± 1.2 µg/mL
Tmax [1, 3]: 9.33 ± 4.04 days

Source: publication PMC11162469, “Discovery of RXFP2 genetic association in resistant hypertensive men and RXFP2 antagonists for the treatment of resistant hypertension” (Scientific Reports, 2024)
